Test system: Escherichia coli TOP10
Experiment: shrunken log2 fold change of peptide-encoding DNA abundance (4.5 h post-induction vs induction); higher = less antimicrobial activity (less host growth inhibition)
Settings: time post-induction: 4.5 h; library: site-saturation at positions 5, 18, 19, 20
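Also: peptides expressed intracellularly from a pBAD plasmid library in pooled LB shake-flask culture, induced with 0.3% L-arabinose, DNA abundance read by NGS, three biological replicates, DESeq2 with apeglm shrinkage.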

Sequence	shrunken log2 fold change
RRIRLRPPRLPRPRPRPTHEPRP	0.361
RRIRLRPPRLPRPRPRPTIHPRP	-0.3
RRIRLRPPRLPRPRPRPTITPRP	-0.0781
RRIRLRPPRLPRPRPRPTIVPRP	-0.183
RRIRLRPPRLPRPRPRPTKCPRP	-0.0436
RRIRLRPPRLPRPRPRPTLRPRP	0.161
RRIRLRPPRLPRPRPRPTLWPRP	0.284
RRIRLRPPRLPRPRPRPTMYPRP	0.163
RRIRLRPPRLPRPRPRPTPYPRP	-0.00235
RRIRLRPPRLPRPRPRPTQYPRP	-0.696
RRIRLRPPRLPRPRPRPTSAPRP	0.659
RRIRLRPPRLPRPRPRPTSCPRP	0.0575
RRIRLRPPRLPRPRPRPTSDPRP	0.0874
RRIRLRPPRLPRPRPRPTSMPRP	-0.154
RRIRLRPPRLPRPRPRPTVDPRP	-0.131
RRIRLRPPRLPRPRPRPTVVPRP	-0.0551
RRIRLRPPRLPRPRPRPTWAPRP	0.17
RRIRLRPPRLPRPRPRPTWVPRP	0.0425
RRIRLRPPRLPRPRPRPVDLPRP	-0.418
RRIRLRPPRLPRPRPRPVDPPRP	-0.0136
RRIRLRPPRLPRPRPRPVEPPRP	0.188
RRIRLRPPRLPRPRPRPVEVPRP	-0.0272
RRIRLRPPRLPRPRPRPVFDPRP	-0.251
RRIRLRPPRLPRPRPRPVFFPRP	0.0612
RRIRLRPPRLPRPRPRPVHAPRP	0.178

Sequence	shrunken log2 fold change
RRIRLRPPRLPRPRPRPVHLPRP	-0.0235
RRIRLRPPRLPRPRPRPVHTPRP	-0.0875
RRIRLRPPRLPRPRPRPVILPRP	-1
RRIRLRPPRLPRPRPRPVKHPRP	-0.131
RRIRLRPPRLPRPRPRPVKWPRP	0.215
RRIRLRPPRLPRPRPRPVLGPRP	0.192
RRIRLRPPRLPRPRPRPVLHPRP	-0.024
RRIRLRPPRLPRPRPRPVMPPRP	-0.29
RRIRLRPPRLPRPRPRPVMRPRP	0.076
RRIRLRPPRLPRPRPRPVNSPRP	0.1
RRIRLRPPRLPRPRPRPVQMPRP	3
RRIRLRPPRLPRPRPRPVQNPRP	0.0224
RRIRLRPPRLPRPRPRPVSMPRP	-0.302
RRIRLRPPRLPRPRPRPVSYPRP	-0.0976
RRIRLRPPRLPRPRPRPVWGPRP	0.0435
RRIRLRPPRLPRPRPRPVWIPRP	0.0148
RRIRLRPPRLPRPRPRPWCFPRP	-0.158
RRIRLRPPRLPRPRPRPWCHPRP	-0.441
RRIRLRPPRLPRPRPRPWEAPRP	-0.229
RRIRLRPPRLPRPRPRPWGYPRP	-0.359
RRIRLRPPRLPRPRPRPWHGPRP	-0.109
RRIRLRPPRLPRPRPRPWIDPRP	-0.0305
RRIRLRPPRLPRPRPRPWKCPRP	-0.391
RRIRLRPPRLPRPRPRPWKLPRP	-0.00968
RRIRLRPPRLPRPRPRPWKPPRP	-0.0142

Sequence	shrunken log2 fold change
RRIRLRPPRLPRPRPRPWLEPRP	-0.212
RRIRLRPPRLPRPRPRPWMWPRP	0.154
RRIRLRPPRLPRPRPRPWNGPRP	-0.217
RRIRLRPPRLPRPRPRPWNLPRP	-0.0149
RRIRLRPPRLPRPRPRPWPDPRP	-0.148
RRIRLRPPRLPRPRPRPWPRPRP	0.113
RRIRLRPPRLPRPRPRPWQIPRP	0.019
RRIRLRPPRLPRPRPRPWQSPRP	0.0341
RRIRLRPPRLPRPRPRPWRAPRP	0.392
RRIRLRPPRLPRPRPRPWRIPRP	0.0246
RRIRLRPPRLPRPRPRPWSGPRP	-0.000803
RRIRLRPPRLPRPRPRPWSMPRP	0.202
RRIRLRPPRLPRPRPRPWVEPRP	-0.186
RRIRLRPPRLPRPRPRPWVRPRP	-0.00819
RRIRLRPPRLPRPRPRPWVTPRP	-0.145
RRIRLRPPRLPRPRPRPWYEPRP	0.0242
RRIRLRPPRLPRPRPRPYANPRP	-0.165
RRIRLRPPRLPRPRPRPYCLPRP	-0.303
RRIRLRPPRLPRPRPRPYDYPRP	-0.0244
RRIRLRPPRLPRPRPRPYFMPRP	-0.855
RRIRLRPPRLPRPRPRPYFQPRP	-0.269
RRIRLRPPRLPRPRPRPYFTPRP	-0.468
RRIRLRPPRLPRPRPRPYGAPRP	-0.0327
RRIRLRPPRLPRPRPRPYGKPRP	-0.242
RRIRLRPPRLPRPRPRPYHCPRP	-0.575

Sequence	shrunken log2 fold change
RRIRLRPPRLPRPRPRPYKEPRP	-0.0365
RRIRLRPPRLPRPRPRPYKKPRP	-0.404
RRIRLRPPRLPRPRPRPYLWPRP	-0.0439
RRIRLRPPRLPRPRPRPYMDPRP	-0.0681
RRIRLRPPRLPRPRPRPYMTPRP	-0.82
RRIRLRPPRLPRPRPRPYQCPRP	-0.373
RRIRLRPPRLPRPRPRPYQHPRP	-0.661
RRIRLRPPRLPRPRPRPYQNPRP	-0.0985
RRIRLRPPRLPRPRPRPYSDPRP	-0.0348
RRIRLRPPRLPRPRPRPYTKPRP	0.119
RRIRLRPPRLPRPRPRPYVLPRP	-0.0278
RRIRLRPPRLPRPRPRPYWGPRP	-0.304
RRIRLRPPRLPRPRPRPYWKPRP	-0.0713
RRIRLRPPRLPRPRPRPYWLPRP	-0.54
RRIRMRPPRLPRPRPRPAAIPRP	0.456
RRIRMRPPRLPRPRPRPAAKPRP	1.26
RRIRMRPPRLPRPRPRPAAMPRP	0.915
RRIRMRPPRLPRPRPRPACNPRP	0.39
RRIRMRPPRLPRPRPRPAEHPRP	-0.0575
RRIRMRPPRLPRPRPRPAERPRP	0.385
RRIRMRPPRLPRPRPRPAFDPRP	0.629
RRIRMRPPRLPRPRPRPAFNPRP	0.144
RRIRMRPPRLPRPRPRPAGEPRP	1.87
RRIRMRPPRLPRPRPRPAHPPRP	0.296
RRIRMRPPRLPRPRPRPAIAPRP	1.25

Sequence	shrunken log2 fold change
RRIRMRPPRLPRPRPRPAKYPRP	-0.111
RRIRMRPPRLPRPRPRPALQPRP	0.791
RRIRMRPPRLPRPRPRPANGPRP	0.094
RRIRMRPPRLPRPRPRPANPPRP	0.267
RRIRMRPPRLPRPRPRPANYPRP	-0.394
RRIRMRPPRLPRPRPRPAPNPRP	1.07
RRIRMRPPRLPRPRPRPAPQPRP	1.77
RRIRMRPPRLPRPRPRPARTPRP	1.53
RRIRMRPPRLPRPRPRPATSPRP	0.654
RRIRMRPPRLPRPRPRPATWPRP	0.515
RRIRMRPPRLPRPRPRPAWTPRP	0.08
RRIRMRPPRLPRPRPRPAYRPRP	0.196
RRIRMRPPRLPRPRPRPAYTPRP	-0.0493
RRIRMRPPRLPRPRPRPCCLPRP	0.273
RRIRMRPPRLPRPRPRPCCPPRP	-0.0946
RRIRMRPPRLPRPRPRPCDVPRP	0.0259
RRIRMRPPRLPRPRPRPCGCPRP	0.0371
RRIRMRPPRLPRPRPRPCGNPRP	0.137
RRIRMRPPRLPRPRPRPCGRPRP	1.09
RRIRMRPPRLPRPRPRPCGSPRP	-0.0626
RRIRMRPPRLPRPRPRPCGVPRP	0.714
RRIRMRPPRLPRPRPRPCHGPRP	0.241
RRIRMRPPRLPRPRPRPCIRPRP	-0.122
RRIRMRPPRLPRPRPRPCKAPRP	0.173
RRIRMRPPRLPRPRPRPCLDPRP	-0.273

Sequence	shrunken log2 fold change
RRIRMRPPRLPRPRPRPCLTPRP	0.000866
RRIRMRPPRLPRPRPRPCMHPRP	0.14
RRIRMRPPRLPRPRPRPCMMPRP	-0.124
RRIRMRPPRLPRPRPRPCNVPRP	0.0415
RRIRMRPPRLPRPRPRPCNWPRP	-0.00208
RRIRMRPPRLPRPRPRPCPWPRP	0.0763
RRIRMRPPRLPRPRPRPCQYPRP	0.0396
RRIRMRPPRLPRPRPRPCSKPRP	-0.00101
RRIRMRPPRLPRPRPRPCTDPRP	-0.132
RRIRMRPPRLPRPRPRPCVEPRP	0.755
RRIRMRPPRLPRPRPRPCVHPRP	0.0648
RRIRMRPPRLPRPRPRPCYDPRP	0.0509
RRIRMRPPRLPRPRPRPCYGPRP	-0.534
RRIRMRPPRLPRPRPRPCYLPRP	0.0715
RRIRMRPPRLPRPRPRPCYVPRP	-0.506
RRIRMRPPRLPRPRPRPDACPRP	1.97
RRIRMRPPRLPRPRPRPDAGPRP	1.12
RRIRMRPPRLPRPRPRPDCFPRP	0.0619
RRIRMRPPRLPRPRPRPDCKPRP	-0.0414
RRIRMRPPRLPRPRPRPDDGPRP	0.038
RRIRMRPPRLPRPRPRPDDLPRP	2.58
RRIRMRPPRLPRPRPRPDDSPRP	0.175
RRIRMRPPRLPRPRPRPDEDPRP	-0.0149
RRIRMRPPRLPRPRPRPDFNPRP	0.0763
RRIRMRPPRLPRPRPRPDFTPRP	0.463

From the supplement of paper PMC9112550, “Optimization of the antimicrobial peptide Bac7 by deep mutational scanning” (BMC Biology, 2022)
